Legend:
Experiment in all cases: SPR
Conditions in all cases: both partners purified
SARS-CoV-2 BA.2 RBD = SARS-CoV-2 BA.2 RBD (SARS-CoV-2 Omicron BA.2, strain)
SARS-CoV-2 XBB.1.5 RBD = SARS-CoV-2 XBB.1.5 RBD (SARS-CoV-2, UniProt P0DTC2)
SARS-CoV-2 XBB.1 RBD = SARS-CoV-2 XBB.1 RBD (SARS-CoV-2 Omicron XBB.1, strain)
SARS-CoV-2 BQ.1.1 RBD = SARS-CoV-2 BQ.1.1 RBD (SARS-CoV-2, UniProt P0DTC2)
SARS-CoV-2 BA.2.75.2 RBD = SARS-CoV-2 BA.2.75.2 RBD (SARS-CoV-2 Omicron BA.2.75.2, strain)
SARS-CoV-2 BA.1 RBD = SARS-CoV-2 BA.1 RBD (SARS-CoV-2, UniProt P0DTC2)
SARS-CoV-2 CH.1.1 RBD = SARS-CoV-2 CH.1.1 RBD (SARS-CoV-2 Omicron CH.1.1, strain)

B1: VIR-7229 Fab fragment (Fab, V domains shown)
VH: EVQLVESGGSVVQPGRALRLSCAASGITFSSFGMYWVRQAPGKGLEWLGYIAYDGSDTYYADSVKGRFTISRDNSKNTLYLQMNSLRIEDTAVYYCAKDYYPLLSYYYGLDVWGQGTTVTVSS
VL: QSVLTQPRSVSGSPGQSVTISCTGTSSDVGAYNYVSWYQQHPGKAPKFMIYDVDQRPSGVPDRFSGSKSGNTASLIISGLQAEDEADYYCSSYAGSYIWVFGGGTQLTVL
notes: source: ExpiCHO (IgG1); Fab by fragmentation of the IgG with the FabLACTICA Fab kit
B1 was tested, and the Kd (SARS-CoV-2 BA.2 RBD) was 0.396 nM, the koff (SARS-CoV-2 BA.2 RBD) was 9.72e-05 s⁻¹ and the kon (SARS-CoV-2 BA.2 RBD) was 245000 M⁻¹ s⁻¹. For the same binder, the Kd (SARS-CoV-2 XBB.1.5 RBD) was 0.06 nM, the koff (SARS-CoV-2 XBB.1.5 RBD) was 4.09e-05 s⁻¹ and the kon (SARS-CoV-2 XBB.1.5 RBD) was 752000 M⁻¹ s⁻¹. The Kd (SARS-CoV-2 XBB.1 RBD) was 0.21 nM, the koff (SARS-CoV-2 XBB.1 RBD) was 0.000108 s⁻¹ and the kon (SARS-CoV-2 XBB.1 RBD) was 524000 M⁻¹ s⁻¹. It also gave a Kd (SARS-CoV-2 BQ.1.1 RBD) of 0.0993 nM, a koff (SARS-CoV-2 BQ.1.1 RBD) of 5.63e-05 s⁻¹ and a kon (SARS-CoV-2 BQ.1.1 RBD) of 582000 M⁻¹ s⁻¹. For the same binder, the Kd (SARS-CoV-2 BA.2.75.2 RBD) was 0.284 nM, the koff (SARS-CoV-2 BA.2.75.2 RBD) was 0.000117 s⁻¹ and the kon (SARS-CoV-2 BA.2.75.2 RBD) was 431000 M⁻¹ s⁻¹. For the same binder, the Kd (SARS-CoV-2 BA.1 RBD) was 0.434 nM, the koff (SARS-CoV-2 BA.1 RBD) was 0.000124 s⁻¹ and the kon (SARS-CoV-2 BA.1 RBD) was 285000 M⁻¹ s⁻¹. It also gave a Kd (SARS-CoV-2 CH.1.1 RBD) of 0.12 nM, a koff (SARS-CoV-2 CH.1.1 RBD) of 6.63e-05 s⁻¹ and a kon (SARS-CoV-2 CH.1.1 RBD) of 586000 M⁻¹ s⁻¹.

Reference: PMC11645210 (Cell, 2024)
